{"source": "patent US12636342B2", "about": "“TARS derived from Akkermansia muciniphila or fragment thereof, and use thereof” (KOREA RESEARCH INSTITUTE OF BIOSCIENCE AND BIOTECHNOLOGY, priority 2020, dated 2026)", "molecules": {"B1": {"name": "Akkermansia muciniphila-derived threonyl-tRNA synthetase (TARS) (protein)", "chain": "MSEHKERKTLEERQQMSDLERLRHSCAHVLATAICRLWPDAQLAGGPAVDNGFYYDVELDHRISTEDFERIEEEMKKVVKENQVFQKEVISRADAMKMAESGELGALGPRSEPSRFKIDLLNDIPEDEEISLYRNGDFTDLCAGPHVGRTGNCKAFKIMSVASAFYKGDKNRPMLQRIYGTCFPNRTQLDEHLERLEEARRRDHRKLGRELGLFCIDESVGQGLILWKPKGALIRRSLQDFITEELDKLGYSQVYTPNIGKLDLYRTSGHFPYYQESQYAPIPERDAMEKLSQEGASCAELFNGLATGTIEGYMLKPMNCPHHIKIYANDAHSYRDLPVRLAEFGTVYRWEQSGELGGMTRVRGFTQDDAHIFCTPDQLAGEIRQCLGIVKTIFGTLGMTDYRVRLSMRDPESDKYVGSPENWDKAEQALREAAEWLGADYSEEAGEAAFYGPKIDFIVRDAIGREWQLGTVQVDYNLPERFDLHYTGADNKPHRPVMVHRAPFGSMERFTGLLIEHFEGKFPTWLSPEQVRVLPISDKVTDVAAAHRTALAARGVRVTVDETPDKIGAKIRNARLDRVPYMLVLGQREAEDGTVSVRHRDKGDLGAMPFEQFADLVAREIAERHISPVI", "modifications": "Akkermansia muciniphila TARS"}}, "key": {"[1]": {"test_system": "BMDMs", "assay": "M2 macrophage polarization in BMDMs (CD206 flow cytometry)", "assay_type": "cell-based, mouse", "procedure": "Since M2 macrophage polarization precedes production of anti-inflammatory cytokines such as IL-10, we assessed the effects of AmTARS on macrophage polarization. BMDMs were treated with PBS (negative control), LPS (to induce M1 polarization), or IL-4/IL-13 (to induce M2 polarization [positive control]) in the absence and presence of AmTARS, and the resulting M2 macrophage population was measured by flow cytometry using an antibody specific for the M2 macrophage surface marker CD206."}, "[2]": {"test_system": "BMDMs from TLR2-KO mouse", "assay": "IL-10 production in BMDMs from TLR2 knock-out mice", "assay_type": "cell-based", "source_text": "The TLR2-dependent immune function of AmTARS was further corroborated using TLR2 knock-out (KO) mice. […] However, IL-10 production by […] (U1/U2) was abolished in BMDMs from TLR2-KO mice, providing further evidence that AmTARS regulates host immune cells via its unique regions in a TLR2-dependent manner (FIG. 28D)."}, "[3]": {"test_system": "peritoneal macrophages from TLR2-KO mice", "assay": "M2 macrophage polarization in TLR2-KO mice under non-inflammatory conditions", "assay_type": "in vivo, mouse", "settings": "24 h", "procedure": "(A and B) AmTARS interacts directly with TLR2. Pull-down assay using lysates of HEK 293T cells transfected with Strep-AmTARS and TLR2-FLAG (A). The proteins precipitated by an anti-Strep antibody were analyzed by western blotting. In vitro interaction assay using purified TLR2-FLAG and His-tagged AmTARS proteins (B). Purified TLR2-FLAG was mixed with purified His-tagged AmTARS protein. His-tagged protein was precipitated by Ni-NTA, eluted, and analyzed by SDS-PAGE. (C) TLR2-dependent anti-inflammatory function of AmTARS in BMDMs (n=6 per group). (D) The unique regions within AmTARS are essential for anti-inflammatory function in a TLR2-dependent manner (n=8 per wild-type group and n=6 per TLR2 KO group). BMDMs from WT or TLR2-KO mice were treated with the indicated proteins (C and D). (E-I) TLR2-dependent function of AmTARS in vivo. WT or TLR2-KO mice with DSS-induced colitis were injected with either PBS or AmTARS. Daily changes in disease activity scores (E). Intestinal epithelial damage, as analyzed by H&E staining (F), and damage scores (G) (n=3 per group). […] After 24 h, PECs were isolated, and the percentage of M2 macrophages (CD206+CD11b+F4/80+) was measured by flow cytometry. […] P-values were calculated by an unpaired two-tailed Student's t-test."}, "[4]": {"test_system": "THP1 cells", "assay": "Immunoblotting of AmTARS/TLR2-induced signaling molecules in THP1 cells", "assay_type": "cell-based, human", "procedure": "(A and B) Analysis of key molecules that inhibit the MAPK and PI3K/AKT signaling pathways. IL-10 produced by BMDMs pre-treated with inhibitors of ERK (PD98059, […]), p38 (SB203580, […]), MSK1/2 (SB747651A, 10 μM), CREB (666-15, 1 μM), PI3K (Wortmannin, 10 μM), and AKT1/2 (AKT1/2, 10 μM) for 1 h before treatment with either PBS or AmTARS for 24 h (n=6 per group) (A). Flow cytometry analysis of M2 macrophages in BMDMs pre-treated for 1 h with the indicated kinase inhibitors, before treatment with either PBS or AmTARS for 24 h (n=3 per group) (B). (C and D) Western blot analysis of MAPK signaling molecules in lysates of BMDMs (C) or THP1 cells (D) treated for different times with 0.5 μM AmTARS. (E) Western blot analysis of lysates of BMDMs pre-treated with α-IgG (Isotype, 1 μg ml-1) or α-TLR2 (1 μg ml-1) for 1 h before treatment with PBS, AmTARS (0.5 μM), or Pam3 (0.5 μM) for 30 min. (F and G) Western blot analysis of PI3K/AKT signaling molecules in lysates of BMDMs (F) or THP1 cells (G) treated with 0.5 μM AmTARS. (H) AmTARS activates both TLR2/1- and TLR2/6-mediated signaling. Activation of AKT, ERK, and CREB was measured by western blot analysis of lysates of THP1 cells pre-treated with α-IgG, α-TLR1, α-TLR2, or α-TLR6 (1 μg ml-1) for 1 h before treatment for 30 min with PBS or AmTARS (0.5 µM). Data shown in (A and B) are representative of three independent experiments, each with similar results (mean±SEM). P-values were calculated using an unpaired two-tailed Student's t-test. Data shown in (C-H) are representative and repeated at least three times.\nSubsequently, we conducted immunoblotting assays to measure the time-dependent activation of AmTARS/TLR2-induced signaling molecules in both BMDMs and THP1 cells. AmTARS rapidly activated ERK, p38, and MSK1/2 within 15 min and, subsequently, phosphorylation of CREB at Ser133 (which is essential for IL-10 production) within 30 min in BMDMs (FIG. 31C) and THP1 cells (FIG. 31D). We then compared AmTARS-triggered TLR2 signaling with typical ligand-triggered signaling using Pam3CSK4 (the synthetic canonical TLR2/1 agonist, referred to hereafter as Pam3) in BMDMs stimulated for 30 min. […] By contrast, activation of NF-κB was greater in Pam3-treated BMDMs than in AmTARS-treated BMDMs (FIG. 31E)."}, "[5]": {"test_system": "inflammatory bowel disease mouse model", "assay": "DSS-induced inflammatory bowel disease mouse model, intramuscular injection", "assay_type": "in vivo", "source_text": "Further, AmTARS was intramuscularly injected into the mouse model to confirm the anti-inflammatory efficacy thereof."}, "[6]": {"settings": "intramuscularly injected at 0.4 mg/kg or more"}}}
{"molecule": "B1", "values": [{"measurement": "M2 polarization (CD206+)", "setting": "[1]; LPS-treated BMDMs (M1 polarization)", "result": "significantly re-polarized LPS-induced M1 macrophages to M2 macrophages"}, {"measurement": "M2 polarization (CD206+)", "setting": "[1]; PBS-treated BMDMs", "result": "activated M2 polarization"}, {"measurement": "IL-10 production", "setting": "[2]", "result": "did not induce IL-10 production"}, {"measurement": "M2 macrophage polarization of peritoneal macrophages", "setting": "[3]; TLR2-KO mice, non-inflammatory conditions", "result": "did not cause M2 macrophage polarization"}, {"measurement": "M2 macrophages in PECs isolated from TLR2-KO mice (FIG. 28K)", "setting": "[3]; TLR2-KO", "result": "no M2 macrophages were observed"}, {"measurement": "time to activation of AKT", "setting": "[4]; 0.5 μM AmTARS", "result": "≤ 15", "unit": "min"}, {"measurement": "time to activation of ERK", "setting": "[4]; 0.5 μM AmTARS", "result": "≤ 15", "unit": "min"}, {"measurement": "time to activation of MSK1/2", "setting": "[4]; 0.5 μM AmTARS", "result": "≤ 15", "unit": "min"}, {"measurement": "time to activation of PI3K", "setting": "[4]; 0.5 μM AmTARS", "result": "≤ 15", "unit": "min"}, {"measurement": "time to activation of p38", "setting": "[4]; 0.5 μM AmTARS", "result": "≤ 15", "unit": "min"}, {"measurement": "time to inhibition of GSK3β activity (phosphorylation at Ser9)", "setting": "[4]; 0.5 μM AmTARS", "result": "≤ 15", "unit": "min"}, {"measurement": "time to phosphorylation of CREB at Ser133", "setting": "[4]; 0.5 μM AmTARS", "result": "≤ 30", "unit": "min"}, {"measurement": "AmTARS-induced TLR2 signaling (AKT, ERK, CREB) after antibody pre-treatment", "setting": "[4]; α-TLR1, α-TLR2 or α-TLR6 1 μg ml-1 1 h, then AmTARS 0.5 μM 30 min", "result": "shut down by antibodies targeting TLR1, TLR6, and TLR2"}, {"measurement": "damage to intestinal epithelial cells", "setting": "[5]; intramuscular injection", "result": "alleviate the damage to intestinal epithelial cells"}, {"measurement": "intestinal length of the mouse model", "setting": "[5]; [6]", "result": "efficacy of decreasing the weight and intestinal length"}, {"measurement": "weight of the mouse model", "setting": "[5]; [6]", "result": "efficacy of decreasing the weight and intestinal length"}]}
